Laboratory results as given in the supplement of paper PMC6757056.
± gives the standard deviation of the averaged measurements.

B1: library; a variant is named by its letters at N, in order (parent)
chain: GCUGUCACCGGUGCUUGGUACGUUAUAUUCAGCCGGUCUGAUGAGUCUNNNNNNAGACGAAACAGC

What was measured:
(6R,S)-folinic acid [1] = variants of: B1; assay: normalized RNA/DNA level without ligand (relative to sTRSVctl = 100) (log10 (% of sTRSVctl)); HEK293T overexpressing SLC46A1; higher = less ribozyme self-cleavage, higher mRNA level; conditions: without (6R,S)-folinic acid; ligand present: no
How it was run: (§1)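 Total RNA, extracted with EDTA 72 h after HEK293T cells were transfected with 4 µg per 6-well well of reporter-linked ribozyme switch library plasmids, was reverse-transcribed, amplified, barcoded and sequenced. Ligand, if used, was added 1 h before transfection. RNA level was derived from RNA reads divided by DNA reads and normalized to a spiked-in non-cleaving sequence or to the top sequences. This was multiplied by 100 and log10-transformed, with the top set of 25 sequences and a ≥100 DNA read minimum.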

(6R,S)-folinic acid [2] = variants of: B1; assay: normalized RNA/DNA level with ligand (relative to sTRSVctl = 100) (log10 (% of sTRSVctl)); HEK293T overexpressing SLC46A1; ligand concentration (+) RNA-Seq: 6 mM; higher = less ribozyme self-cleavage, higher mRNA level; conditions: with (6R,S)-folinic acid; ligand present: yes
How it was run: as §1

Variant | normalized RNA/DNA level without ligand (log10) ((6R,S)-folinic acid [1]) | normalized RNA/DNA level with ligand (log10) ((6R,S)-folinic acid [2])
UAGGAG | 1.63 ± 0.024 | 1.91 ± 0.033
CAGGAU | 1.9357 ± 0.0006 | 1.97 ± 0.049
CAGGCA | 2.022 ± 0.019 | 2.009 ± 0.0063
AAGGCA | 2.007 ± 0.0039 | 2.04 ± 0.022
UAGGCA | 1.972 ± 0.00036 | 2.027 ± 0.02
CAGGCC | 2.06 ± 0.046 | 2.02 ± 0.049
GAGGCC | 2.041 ± 0.0098 | 2.044 ± 0.012
UAGGCC | 2.047 ± 0.004 | 2.04 ± 0.044
CAGGCG | 2.02 ± 0.023 | 2.03 ± 0.029
AAGGCG | 1.9326 ± 0.0006 | 2.03 ± 0.036
GAGGCG | 2.003 ± 0.014 | 2.05 ± 0.055
UAGGCG | 1.762 ± 0.0037 | 1.97 ± 0.032
AAGGCU | 1.995 ± 0.011 | 2.019 ± 0.0048
GAGGCU | 2.073 ± 0.0028 | 2.04 ± 0.022
UAGGCU | 2.03 ± 0.024 | 2.05 ± 0.061
CAGGGA | 1.962 ± 0.005 | 2 ± 0.029
CAGGGC | 1.994 ± 0.013 | 2.03 ± 0.046
AAGGGC | 2.0351 ± 4.5e-05 | 2.05 ± 0.045
GAGGGC | 1.956 ± 0.011 | 2.04 ± 0.042
UAGGGC | 2.01 ± 0.0043 | 2.02 ± 0.03
CAGGGG | 1.87 ± 0.049 | 1.996 ± 0.016
AAGGGG | 1.902 ± 0.011 | 2.038 ± 0.011
GAGGGG | 2.007 ± 0.018 | 2.04 ± 0.051
CAGGGU | 1.974 ± 0.014 | 2 ± 0.031

Variant | normalized RNA/DNA level without ligand (log10) ((6R,S)-folinic acid [1]) | normalized RNA/DNA level with ligand (log10) ((6R,S)-folinic acid [2])
CAGGUC | 2.08 ± 0.0023 | 2.04 ± 0.045
GAGGUC | 2.038 ± 0.01 | 2.04 ± 0.052
UAGGUC | 2.05 ± 0.022 | 2 ± 0.054
CAGGUU | 2 ± 0.032 | 2 ± 0.022
AAGGUU | 1.974 ± 0.015 | 2.02 ± 0.025
UAGGUU | 1.961 ± 0.011 | 2 ± 0.026
CAGUAC | 1.96 ± 0.036 | 1.97 ± 0.04
AAGUAC | 2.02 ± 0.024 | 2.03 ± 0.039
UAGUAC | 1.972 ± 0.002 | 2.01 ± 0.048
CAGUAG | 1.93 ± 0.023 | 1.99 ± 0.052
CAGUAU | 1.951 ± 0.0075 | 2.016 ± 0.013
AAGUAU | 1.959 ± 0.011 | 2.02 ± 0.03
GAGUAU | 1.982 ± 0.0044 | 2.014 ± 0.02
CAGUCA | 1.967 ± 0.0097 | 1.96 ± 0.058
AAGUCA | 1.969 ± 0.0021 | 1.98 ± 0.029
UAGUCA | 1.98 ± 0.021 | 2.01 ± 0.038
CAGUCC | 2.051 ± 0.011 | 2.04 ± 0.037
AAGUCC | 2 ± 0.023 | 2.01 ± 0.024
UAGUCC | 2.0087 ± 0.0016 | 2.03 ± 0.057
GAGUCG | 1.984 ± 0.019 | 2 ± 0.034
UAGUCG | 1.813 ± 0.0049 | 1.99 ± 0.043
CAGUCU | 2.018 ± 0.0006 | 2.03 ± 0.038
AAGUCU | 2.066 ± 0.015 | 2.0681 ± 0.0013
GAGUCU | 2.0246 ± 0.001 | 2.02 ± 0.027

Variant | normalized RNA/DNA level without ligand (log10) ((6R,S)-folinic acid [1]) | normalized RNA/DNA level with ligand (log10) ((6R,S)-folinic acid [2])
UAGUCU | 2.0118 ± 0.0019 | 2.02 ± 0.037
CAGUGA | 1.979 ± 0.011 | 2.007 ± 0.02
UAGUGA | 1.8778 ± 0.0018 | 2 ± 0.025
CAGUGC | 2.011 ± 0.014 | 2 ± 0.026
AAGUGC | 1.984 ± 0.0023 | 2.01 ± 0.052
CAGUGG | 1.91 ± 0.023 | 2.005 ± 0.0026
AAGUGG | 1.87 ± 0.01 | 2.02 ± 0.041
CAGUGU | 2.015 ± 0.02 | 2.03 ± 0.025
UAGUGU | 1.901 ± 0.008 | 1.99 ± 0.0065
GAGUUA | 2.008 ± 0.0034 | 2.03 ± 0.022
UAGUUA | 1.932 ± 0.015 | 1.984 ± 0.0094
AAGUUC | 2.031 ± 0.017 | 2.02 ± 0.054
GAGUUC | 2.013 ± 0.02 | 2.025 ± 0.014
UAGUUC | 2.0145 ± 0.00068 | 2.03 ± 0.027
CAGUUG | 2.041 ± 0.0043 | 2.06 ± 0.013
CAGUUU | 1.989 ± 0.011 | 2.03 ± 0.039
AAGUUU | 2.009 ± 0.017 | 2.01 ± 0.033
GAGUUU | 2 ± 0.02 | 2.01 ± 0.037
UAGUUU | 2.01 ± 0.0059 | 2.02 ± 0.033
UAUAAC | 1.98 ± 0.0056 | 2 ± 0.029
CAUAAG | 1.95 ± 0.035 | 2.03 ± 0.035
GAUAAG | 1.917 ± 0.0057 | 2 ± 0.033
CAUACA | 2.001 ± 0.0091 | 1.98 ± 0.048
AAUACA | 1.998 ± 0.014 | 1.995 ± 0.015

Variant | normalized RNA/DNA level without ligand (log10) ((6R,S)-folinic acid [1]) | normalized RNA/DNA level with ligand (log10) ((6R,S)-folinic acid [2])
UAUACA | 1.965 ± 0.003 | 2.01 ± 0.05
CAUACC | 2.027 ± 0.004 | 2.03 ± 0.029
GAUACC | 2.003 ± 0.0086 | 2.026 ± 0.0083
CAUACG | 1.987 ± 0.0082 | 2 ± 0.023
AAUACG | 1.934 ± 0.0037 | 1.99 ± 0.056
CAUACU | 2.01 ± 0.018 | 2.03 ± 0.051
GAUACU | 2.001 ± 0.0036 | 2.01 ± 0.036
CAUAGA | 2.002 ± 0.0073 | 2.01 ± 0.033
CAUAGC | 1.9903 ± 0.00018 | 1.98 ± 0.047
AAUAGC | 1.985 ± 0.013 | 2 ± 0.058
CAUAGG | 1.911 ± 0.019 | 1.998 ± 0.0083
CAUAGU | 2.003 ± 0.013 | 2.025 ± 0.0053
UAUAGU | 1.874 ± 0.014 | 1.97 ± 0.041
CAUAUA | 1.954 ± 0.019 | 1.97 ± 0.036
UAUAUA | 1.944 ± 0.0099 | 2 ± 0.034
GAUAUC | 2.02 ± 0.018 | 2.03 ± 0.036
UAUAUC | 2.027 ± 0.0026 | 2.01 ± 0.036
GAUAUU | 2.005 ± 0.0061 | 2.02 ± 0.041
UAUAUU | 1.9864 ± 0.0015 | 2.01 ± 0.042
CAUCAA | 1.977 ± 0.0041 | 1.97 ± 0.021
AAUCAA | 1.973 ± 0.014 | 1.9902 ± 0.00064
GAUCAA | 2.001 ± 0.0021 | 2 ± 0.027
CAUCAC | 2.03 ± 0.0083 | 2 ± 0.071
AAUCAC | 2.008 ± 0.0074 | 2 ± 0.024

Variant | normalized RNA/DNA level without ligand (log10) ((6R,S)-folinic acid [1]) | normalized RNA/DNA level with ligand (log10) ((6R,S)-folinic acid [2])
GAUCAC | 2.03 ± 0.031 | 2.034 ± 0.0087
UAUCAC | 1.978 ± 0.0043 | 1.99 ± 0.013
CAUCAG | 1.97 ± 0.039 | 1.97 ± 0.021
GAUCAG | 2.03 ± 0.041 | 2.05 ± 0.028
CAUCAU | 2.02 ± 0.052 | 2 ± 0.072
AAUCAU | 1.961 ± 0.0057 | 1.992 ± 0.011
GAUCAU | 2.023 ± 0.008 | 2.02 ± 0.026
CAUCCA | 2.028 ± 0.006 | 1.99 ± 0.036
GAUCCA | 2.034 ± 0.0061 | 2.02 ± 0.039
UAUCCA | 1.979 ± 0.0079 | 2.001 ± 0.0084
CAUCCC | 2.063 ± 0.0042 | 2.041 ± 0.011
AAUCCC | 2.023 ± 0.003 | 2 ± 0.043
GAUCCC | 2.06 ± 0.033 | 2.0517 ± 0.00022
UAUCCC | 2.047 ± 0.0027 | 2.01 ± 0.042
CAUCCG | 2.083 ± 0.013 | 2.05 ± 0.028
AAUCCG | 1.969 ± 0.014 | 2.02 ± 0.055
GAUCCG | 2.0564 ± 0.0019 | 2.05 ± 0.063
CAUCCU | 2.06 ± 0.013 | 2.08 ± 0.058
GAUCCU | 2.066 ± 0.02 | 2.06 ± 0.053
UAUCCU | 2.009 ± 0.0051 | 2 ± 0.048
